Results taken from US8889827B2, “Opiorphin peptide derivatives as potent inhibitors of enkephalin-degrading ectopeptidases” (Institut Pasteur, priority 2008, dated 2014).
Non-standard residues stand in square brackets, D forms with d. No end group written: not given here.

Columns and labels:
Assay type in all cases: biochemical
recombinant human AP-N = target: T1, recombinant human AP-N (Homo sapiens, UniProt P15144); experiment: AP-N-ectopeptidase activity, Ala-Mca substrate; settings: for inhibitory preference for human AP-N (in words): screening at 50 μM, AP-N versus NEP; for inhibitory potency towards human AP-N (in words): screening, 50 μM final concentration, triplicate
T1 construct: devoid of their respective N-terminal cytosol and transmembrane segment; purchased R&D Systems
T1 sequence (P15144 33-967 limits assumed): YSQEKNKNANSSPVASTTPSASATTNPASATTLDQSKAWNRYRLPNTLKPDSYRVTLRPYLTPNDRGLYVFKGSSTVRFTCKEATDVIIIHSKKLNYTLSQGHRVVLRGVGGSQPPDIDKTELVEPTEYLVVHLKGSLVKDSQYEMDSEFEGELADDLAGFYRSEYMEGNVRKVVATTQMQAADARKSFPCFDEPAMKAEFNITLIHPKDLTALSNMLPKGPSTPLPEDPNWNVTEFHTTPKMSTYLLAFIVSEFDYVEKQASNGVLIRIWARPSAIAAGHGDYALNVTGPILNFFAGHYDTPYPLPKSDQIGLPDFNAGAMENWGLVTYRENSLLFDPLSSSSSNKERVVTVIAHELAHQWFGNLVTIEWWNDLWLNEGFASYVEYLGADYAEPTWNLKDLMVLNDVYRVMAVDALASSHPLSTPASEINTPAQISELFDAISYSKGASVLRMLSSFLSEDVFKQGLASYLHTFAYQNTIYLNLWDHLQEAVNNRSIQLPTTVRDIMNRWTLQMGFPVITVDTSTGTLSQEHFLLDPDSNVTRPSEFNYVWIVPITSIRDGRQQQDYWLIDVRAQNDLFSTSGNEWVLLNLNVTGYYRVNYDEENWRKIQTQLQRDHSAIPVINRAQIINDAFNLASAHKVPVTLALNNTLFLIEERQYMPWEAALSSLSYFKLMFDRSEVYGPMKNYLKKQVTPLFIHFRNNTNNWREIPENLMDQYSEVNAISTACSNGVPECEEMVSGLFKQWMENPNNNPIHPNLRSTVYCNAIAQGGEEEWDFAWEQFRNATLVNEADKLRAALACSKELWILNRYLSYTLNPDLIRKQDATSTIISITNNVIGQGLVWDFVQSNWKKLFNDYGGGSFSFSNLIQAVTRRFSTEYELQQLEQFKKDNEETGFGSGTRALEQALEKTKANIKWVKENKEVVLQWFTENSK
Method: (§1) Formal kinetic analysis was performed for each assay using real-time fluorescence monitoring of specific substrate hydrolysis.
(§2) Recombinant human NEP and recombinant human AP-N (devoid of their respective N-terminal cytosol and transmembrane segment) that were purchased from R&D Systems, were used as pure source of peptidase.
FRET is the distance-dependant transfer of energy from a donor fluorophore (Abz=ortho-aminobenzoyl or Mca=7-methoxycoumarin-4-yl-acetyl) to an acceptor fluorophore (DnpOH=2,4-dinitrophenyl or EDDnp=2,4-dinitrophenyl ethylenediamine). • L-alanine-Mca, Ala-Mca, a fluorogenic substrate for measuring aminopeptidase activity was purchased from Sigma.
(§3) According to conditions of initial velocity measurement: the time, pH and temperature of incubation as well as enzyme and substrate concentrations were defined for each assay. Hydrolysis of substrates was measured by real-time monitoring their metabolism rate by the two peptidases in the presence and absence of tested inhibitory compound (concentrations ranging from 1 to 50 μM). These were added to the preincubation medium. The background rate of substrate autolysis representing the fluorescent signal obtained in the absence of enzyme was subtracted to calculate the initial velocities in RFU (Relative Fluorescent Unit)/min.
Measurement of AP-N-ectopeptidase activity using Ala-Mca substrate. Using black half-area 96 well microplate the standard reaction consisted of enzyme (4 ng) in 100 mM Tris-HCl pH 7.0 (100 μl final volume).
(§4) Compounds were tested in triplicate at 50 μM final concentration.

human NEP = target: T2, human NEP (Homo sapiens, UniProt P08473); experiment: Screening of opiorphin peptide-derivatives on hNEP (endopeptidase and carboxydipeptidase activities); settings: for inhibitory potency towards human NEP (in words): screening, 50 μM final concentration, triplicate
T2 construct: devoid of their respective N-terminal cytosol and transmembrane segment; purchased R&D Systems
T2 sequence (P08473 52-750 limits assumed): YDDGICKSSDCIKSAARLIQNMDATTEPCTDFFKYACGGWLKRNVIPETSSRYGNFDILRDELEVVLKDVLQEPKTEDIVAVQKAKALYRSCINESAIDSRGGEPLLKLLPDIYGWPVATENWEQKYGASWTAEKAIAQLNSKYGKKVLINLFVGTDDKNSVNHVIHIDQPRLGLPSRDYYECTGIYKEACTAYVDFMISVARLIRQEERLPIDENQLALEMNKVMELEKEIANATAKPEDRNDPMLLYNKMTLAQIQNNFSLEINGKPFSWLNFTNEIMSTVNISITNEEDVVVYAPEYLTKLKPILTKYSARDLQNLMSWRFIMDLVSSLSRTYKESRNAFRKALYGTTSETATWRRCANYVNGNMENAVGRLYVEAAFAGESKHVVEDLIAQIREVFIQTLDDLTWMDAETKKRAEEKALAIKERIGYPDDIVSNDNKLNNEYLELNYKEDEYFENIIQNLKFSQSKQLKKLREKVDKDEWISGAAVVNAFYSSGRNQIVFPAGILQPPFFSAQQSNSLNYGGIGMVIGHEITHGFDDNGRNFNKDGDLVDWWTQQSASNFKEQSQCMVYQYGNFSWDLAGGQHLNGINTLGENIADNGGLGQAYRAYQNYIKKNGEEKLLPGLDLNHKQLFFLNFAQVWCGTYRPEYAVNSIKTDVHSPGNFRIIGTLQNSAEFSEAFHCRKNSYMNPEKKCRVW
Method: as §3
(§5) (2.3 min-interval successive measures) by using a fluorimeter microplate reader (monochromator Infinite 200-Tecan) at 320 nm and 420 nm excitation and emission wavelengths, respectively.
Using black half-area 96 well microplate, the standard reaction consisted of enzyme (2.5 ng) in 100 mM Tris-HCl pH 6.5 containing 50 mM NaCl (100 μl final volume). The substrate (4 μM final concentration) was added after preincubation for 10 min and the kinetics of appearance of the fluorescent signal (RFU) was directly analyzed for 40 min at 28° C. (2.3 min-interval successive measures) by using the fluorimeter reader at 320 nm excitation and 420 nm emission wavelengths.
In addition, the intramolecularly quenched fluorogenic peptide, Mca-BK2 (10 μM), was submitted to hydrolysis by 5 ng rhNEP under the same experimental conditions as those described behind.
as §4

[1] = target: T3, membrane-bound human NEP expressed by LNCaP epithelial cells (Homo sapiens, UniProt P08473); experiment: Substance P cleavage by membrane-bound hNEP of human cell membranes; settings: increase vs Opiorphin native peptide in the same test
T3 construct: human cell membranes as source of hNEP; endogenous in cells; host or cells: LNCaP epithelial cells (membranes)
T3 sequence (P08473 whole entry): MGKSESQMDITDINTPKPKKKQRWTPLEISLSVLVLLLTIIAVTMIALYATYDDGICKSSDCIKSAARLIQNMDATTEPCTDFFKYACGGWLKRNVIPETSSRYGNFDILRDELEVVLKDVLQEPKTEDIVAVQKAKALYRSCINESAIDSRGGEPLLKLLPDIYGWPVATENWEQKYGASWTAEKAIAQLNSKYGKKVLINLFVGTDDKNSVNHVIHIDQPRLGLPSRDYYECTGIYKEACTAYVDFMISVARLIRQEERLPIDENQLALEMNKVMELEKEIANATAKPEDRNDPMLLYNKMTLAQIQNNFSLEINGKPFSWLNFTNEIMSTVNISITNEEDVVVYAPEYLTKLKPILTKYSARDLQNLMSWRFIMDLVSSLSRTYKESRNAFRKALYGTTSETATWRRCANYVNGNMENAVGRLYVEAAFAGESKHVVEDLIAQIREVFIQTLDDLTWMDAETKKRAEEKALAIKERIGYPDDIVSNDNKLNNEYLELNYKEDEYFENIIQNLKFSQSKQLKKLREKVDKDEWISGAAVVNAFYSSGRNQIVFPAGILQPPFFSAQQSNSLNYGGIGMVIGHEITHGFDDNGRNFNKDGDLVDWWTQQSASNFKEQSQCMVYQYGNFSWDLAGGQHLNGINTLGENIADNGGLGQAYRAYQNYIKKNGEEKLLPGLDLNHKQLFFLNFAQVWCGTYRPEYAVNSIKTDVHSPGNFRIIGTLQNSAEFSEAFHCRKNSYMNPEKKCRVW

[2] = target: T4, recombinant human NEP (rhNEP-Endopeptidase activity) (Homo sapiens, UniProt P08473); experiment: NEP-endopeptidase activity, FRET substrate Abz-dR-G-L-EDDnp; settings: screening at 50 μM and IC50 comparison, NEP endopeptidase versus AP-N
T4 construct: devoid of their respective N-terminal cytosol and transmembrane segment; purchased R&D Systems
T4 sequence (P08473 52-750 limits assumed): as the sequence (P08473 52-750 limits assumed) above
Method: as §1, §2, §3, §5

inhibitory potency towards hAP-N compared to Opiorphin-QRFSR native peptide (in words) (recombinant human AP-N) | inhibitory preference for human AP-N (in words) (recombinant human AP-N) | inhibitory potency towards hNEP compared to Opiorphin-QRFSR native peptide (in words) (human NEP) | inhibitory potency towards human NEP (in words) (human NEP) | Molecule | also measured
equivalent inhibitory potency | inhibitory preference for human AP-N | weak inhibitory potency | weak inhibitory potency | QRFPR | –
– | – | equivalent inhibitory potency | – | QRFSK | –
– | – | – | potent dual inhibitors | N=C(N)NCCC[C@H](NC(=O)[C@H](CO)NC(=O)[C@H](Cc1ccccc1)NC(=O)[C@H](CCCNC(=N)N)NC(=O)[C@H](CCC(N)=O)NC(=O)[C@@H](N)CS)C(=O)O [CQRFSR-COOH, CQRFSR] | reinforced inhibitory potency towards hNEP compared to QRFSR native peptide (human NEP; increase vs QRFSR native peptide): 5 fold
– | – | – | potent dual inhibitors | N=C(N)NCCC[C@H](NC(=O)[C@H](CO)NC(=O)[C@H](Cc1ccccc1)NC(=O)[C@H](CCCNC(=N)N)NC(=O)[C@H](CCC(N)=O)NC(=O)CCCCCCCCCCCCNC(=O)[C@@H](N)Cc1ccc(O)cc1)C(=O)O [Y(PE12)QRFSR-COOH, Y—(—HN—(CH2)12—CO-)-QRFSR] | inhibitory preference for human NEP endopeptidase activity (in words) [2]: inhibitory preference for human NEP endopeptidase activity; inhibitory potency towards human AP-N (in words) (recombinant human AP-N): potent dual inhibitors

Second part, the molecule before the results:

Molecule | inhibitory potency towards hAP-N compared to Opiorphin-QRFSR native peptide (in words) (recombinant human AP-N) | inhibitory preference for human AP-N (in words) (recombinant human AP-N) | inhibitory potency towards hNEP compared to Opiorphin-QRFSR native peptide (in words) (human NEP) | inhibitory potency towards human NEP (in words) (human NEP) | also measured
dR-dS-dF-dR-dQ ([dR][dS][dF][dR][dQ]) [NH2-dRdSdFdRdQ-COOH] | – | preference for AP-N activity | – | did not display significant inhibitory activity | inhibitory potency towards human AP-N (in words) (recombinant human AP-N): did not display significant inhibitory activity
QRGPR [NH2-QRGPR-COOH] | equivalent inhibitory potency | inhibitory preference for human AP-N | weak inhibitory potency | weak inhibitory potency | –
QHNPR [NH2-QHNPR-COOH] | equivalent inhibitory potency | inhibitory preference for human AP-N | weak inhibitory potency | weak inhibitory potency | –
CCCCCCCC(=O)OC[C@H](NC(=O)[C@H](Cc1ccccc1)NC(=O)[C@H](CCCNC(=N)N)NC(=O)[C@H](CCC(N)=O)NC(=O)CCCCCCNC(=O)[C@@H](N)CS)C(=O)N[C@@H](CCCNC(=N)N)C(=O)O [C[PE6]QRF[S—O-Octanoyl]R, C—(—HN—(CH2)6—CO-)-QRF—S(O-octanoyl)-R] | – | – | – | – | increase inhibitory potency compared to Opiorphin native peptide, Substance P test [1]: at least 5 fold
QKFSR | – | – | light reduction in inhibitory potency | – | –
N=C(N)NCCC[C@H](NC(=O)[C@H](CO)NC(=O)[C@H](Cc1ccccc1)NC(=O)[C@H](CCCNC(=N)N)NC(=O)[C@H](CCC(N)=O)NC(=O)[C@@H](N)CSSC[C@H](N)C(=O)N[C@@H](CCC(N)=O)C(=O)N[C@@H](CCCNC(=N)N)C(=O)N[C@@H](Cc1ccccc1)C(=O)N[C@@H](CO)C(=O)N[C@@H](CCCNC(=N)N)C(=O)O)C(=O)O [[CQRFSR]2] | – | – | – | – | increase inhibitory potency towards hNEP-Endo and CarboxyDi-peptidase activities compared to CQRFSR monomer peptide (human NEP; increase vs CQRFSR monomer): at least 2 fold
